Molecular target: human γ-tubulin ring complex (γ-TuRC), the reconstituted complex without NEDD1 (human) (UniProt P23258)
Assay: cryo-EM structure; NEDD1-containing rec-γ-TuRC; free particles in micrographs of Aher et al. (2024), processed anew; consensus map 4.7 Å; model from AlphaFold 3 predictions fitted to the map and refined, side chains trimmed to β-carbons

neural precursor cell expressed, developmentally downregulated 1 (NEDD1), full length, in the reconstituted human γ-TuRC (from UniProt Q8NHV4 1-660) (natural protein)
stoichiometry N: 4
